Columns and labels:
[1] = molecular target: T1, human plasma LDL (human, UniProt P04114 28-4563, 125I-labeled where used as tracer in the receptor assay); test: gel-mobility shift, three independent experiments
T1 construct: mature; Native LDL particle; also called normal human plasma LDL
Protocol: (§1) The interaction between LDL and biglycan or versican was investigated by a gel-mobility shift assay (Camejo, G. et al. 1993. *J. Biol Chem.* 268:14131–14137). Before the assay, the (^35S)biglycan and (^35S)versican preparations were dialyzed extensively at 4° C. against 10 mM HEPES, 150 mM NaCl, 5 mM CaCl_2, and 2 mM MgCl_2 (pH 7.4, Buffer A), and the protein concentrations were determined (BioRad Laboratories) with bovine gamma globulin as the standard. Increasing concentrations of LDL were incubated with approximately 2000 dpm of (^35S)biglycan or (^35S)versican for 1 h at 37° C. in a total volume of 20 μl of Buffer A. Three microliters of bromophenol blue:glycerol (1:1, v/v) was added to the samples, and 20 μl was loaded into wells of 0.7% NuSieve (FMC BioProducts) agarose gels prepared on Gel-Bond film (FMC BioProducts). Electrophoresis was run for 3 h at 60V with recirculating buffer (10 mM HEPES, 2 mM CaCl_2, 4 mM MgCl_2 pH 7.2) in a cold room. Gels were fixed with 0.1% cetyl pyridium chloride in 70% ethanol for 90 min, air-dried, and exposed to Hyper Film-MP (Amersham Life Sciences) at ^-70° C. The (^35S)biglycan or (^35S)versican complexed to LDL appears as a band at the […] with a Hewlett Packard Scan Jet II cx and ImageQuant software (Molecular Dynamics).
(§2) This procedure has the advantages that only microgram quantities of lipoproteins are required and the relative affinity of LDL binding to the proteoglycans can be determined at physiological ionic and pH conditions. […] Of particular interest was that recombinant K3363E LDL interacted defectively with both versican and biglycan but had normal receptor binding.

[2] = molecular target: T2, RK3359-3369SA LDL (recombinant LDL, human apo-B100 with the arginines of Site B changed to serines and the … (human, UniProt P04114 28-4563)); test: gel-mobility shift, three independent experiments
T2 construct: mature; Tested as a purified LDL particle from transgenic mouse plasma; Q2153L follows from the statement that R3500Q is the only LDL without the 'Leu-Leu' mutation; also called recombinant LDL with the uncharged Site B
Protocol: as §1, §2

[3] = molecular target: T3, K3363E LDL (recombinant LDL, human apo-B100 with glutamic acid for lysine at residue 3363) (human, UniProt P04114 28-4563); test: gel-mobility shift, three independent experiments
T3 construct: mature; Tested as a purified LDL particle from transgenic mouse plasma
Protocol: as §1, §2

[4] = molecular target: T4, recombinant control LDL without the 'Leu-Leu' mutation (LDL generated by the unmodified apo-B100 P1 … (human, UniProt P04114 28-4563)); test: gel-mobility shift, data not shown
T4 construct: mature; Tested as an LDL particle
Protocol: as §1, with “Before” for “The interaction between LDL and biglycan or versican was investigated by a gel-mobility shift assay (Camejo, G. et al. 1993. *J. Biol Chem.* 268:14131–14137). Before”
This procedure has the advantages that only microgram quantities of lipoproteins are required and the relative affinity of LDL binding to the proteoglycans can be determined at physiological ionic and pH conditions. […]

[5] = molecular target: T5, recombinant control LDL (human apo-B100 with leucine in place of glutamine at position 2153) (human, UniProt P04114 28-4563); test: summary table, proteoglycan binding (biglycan and versican were the proteoglycans tested)
T5 construct: mature; one apo-B100 per particle, with lipid; also called wild-type recombinant LDL; 'Leu-Leu' apo-B100 LDL

[6] = molecular target: T4, recombinant control LDL without the …; test: receptor-binding activity, details not given
[7] = molecular target: T5, recombinant control LDL (human apo-B100 …); test: summary table, LDL receptor binding
[8] = molecular target: T3, K3363E LDL (recombinant LDL, human …); test: summary table, LDL receptor binding

Measured: binding result

B1: (35S)biglycan from cultured human arterial smooth muscle cells (other, UniProt P21810 38-368, looked up)
chain: DEEASGADTSGVLDPDSVTPTYSAMCPFGCHCHLRVVQCSDLGLKSVPKEISPDTTLLDLQNNDISELRKDDFKGLQHLYALVLVNNKISKIHEKAFSPLRKLQKLYISKNHLVEIPPNLPSSLVELRIHDNRIRKVPKGVFSGLRNMNCIEMGGNPLENSGFEPGAFDGLKLNYLRISEAKLTGIPKDLPETLNELHLDHNKIQAIELEDLLRYSKLYRLGLGHNQIRMIENGSLSFLPTLRELHLDNNKLARVPSGLPDLKLLQVVYLHSNNITKVGVNDFCPMGFGVKRAYYNGISLFNNPVPYWEVQPATFRCVTDRLAIQFGNYKK
modifications: glycosaminoglycan chains metabolically labeled with (35S)SO4
notes: Proteoglycan: core protein with glycosaminoglycan chains; also called pool 3
binds: [1] | [2] | [3] | [4] | [5]

B2: LDL receptor on normal human fibroblasts (receptor)
chain: not shown
notes: whole, on cells; also called LDL receptors
binds: [6] | [7] | [8]

Source: patent US6933284 (University of California, dated 2005)
